The values below come from paper PMC5462737.

The target of assay [1] is F1Fo ATP synthase from E. coli, labeled with ATTO 594 (E. coli) (UniProt P0ABB4).
For assay [2] the target is unchanged. This is another data set of the same source.

A value given as a limit tells only on which side of the number the result lay.

Chain of UniProt P0ABB4 (P0ABB4 whole entry, looked up): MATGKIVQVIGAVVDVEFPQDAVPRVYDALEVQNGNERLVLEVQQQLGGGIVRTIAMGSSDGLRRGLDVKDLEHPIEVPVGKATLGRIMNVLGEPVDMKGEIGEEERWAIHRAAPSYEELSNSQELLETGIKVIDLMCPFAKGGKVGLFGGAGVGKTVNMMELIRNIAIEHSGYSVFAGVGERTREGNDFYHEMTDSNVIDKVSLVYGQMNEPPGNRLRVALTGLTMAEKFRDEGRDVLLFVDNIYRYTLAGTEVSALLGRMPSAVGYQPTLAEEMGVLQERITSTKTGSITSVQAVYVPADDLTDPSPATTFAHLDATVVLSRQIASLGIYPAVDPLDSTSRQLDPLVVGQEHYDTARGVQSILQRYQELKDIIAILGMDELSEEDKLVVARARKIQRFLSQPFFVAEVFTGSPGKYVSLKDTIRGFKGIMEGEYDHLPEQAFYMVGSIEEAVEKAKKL

In turn, “cytochrome bo3 (ubiquinol oxidase) from E. coli, labeled with ATTO 647N (complex)” registered a coupled activity (ATP-synthesis rate driven by proton pumping of cyt. bo3; luciferin/luciferase luminescence) in 100 nm DOPC vesicles, relative to unlabeled proteins in assay [1] of 5 fold. In assay [2], this substance registered a normalized ATP-synthesis rate in 100 nm DOPC:DOPG vesicles, 0-40% DOPG, relative to 100% DOPC; value at 60% DOPC of 60%.

Turning to “cytochrome bo3 (ubiquinol oxidase) from E. coli, labeled with Abberior STAR 635 (complex)”, the coupled activity (ATP-synthesis rate driven by proton pumping of cyt. bo3) in 100 nm DOPC vesicles, increase relative to unlabeled proteins in assay [1] was under 2 fold.
